For one test, the target named is CD16b FcRγIIIb (human, UniProt O75015 20-208).
The target of test [1] is T1, CD16a 158V FcRγIIIa (human, UniProt P08637 17-208).
In a further test the target is T2, CD32b/c FcRγIIb (human, UniProt P31994 46-217).
T2 sequence (looked up): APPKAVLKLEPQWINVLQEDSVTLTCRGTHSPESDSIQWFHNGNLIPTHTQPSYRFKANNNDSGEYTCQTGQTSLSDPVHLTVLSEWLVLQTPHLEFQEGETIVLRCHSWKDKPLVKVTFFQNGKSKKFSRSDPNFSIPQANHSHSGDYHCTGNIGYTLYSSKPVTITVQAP

The next test addresses T3, CD32a 131H FcRγIIa (human, UniProt P12318 36-218).
T3 sequence (looked up): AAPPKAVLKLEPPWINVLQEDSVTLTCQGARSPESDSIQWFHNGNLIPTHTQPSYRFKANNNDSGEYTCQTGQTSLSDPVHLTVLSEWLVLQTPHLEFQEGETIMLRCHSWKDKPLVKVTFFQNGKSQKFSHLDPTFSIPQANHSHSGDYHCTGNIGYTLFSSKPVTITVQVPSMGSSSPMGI

Test [2] addresses T4, CD32a 131R FcRγIIa (human, UniProt P12318 36-218).
T4 sequence (looked up): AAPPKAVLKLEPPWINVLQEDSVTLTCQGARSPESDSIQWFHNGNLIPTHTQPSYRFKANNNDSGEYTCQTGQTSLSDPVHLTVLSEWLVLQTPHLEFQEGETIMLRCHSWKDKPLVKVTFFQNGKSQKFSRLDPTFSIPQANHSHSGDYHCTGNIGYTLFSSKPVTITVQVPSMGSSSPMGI

Test [3] deals with T5, CD64 FcRγI (human, UniProt P12314 16-288).
T5 sequence (P12314 16-288 limits assumed): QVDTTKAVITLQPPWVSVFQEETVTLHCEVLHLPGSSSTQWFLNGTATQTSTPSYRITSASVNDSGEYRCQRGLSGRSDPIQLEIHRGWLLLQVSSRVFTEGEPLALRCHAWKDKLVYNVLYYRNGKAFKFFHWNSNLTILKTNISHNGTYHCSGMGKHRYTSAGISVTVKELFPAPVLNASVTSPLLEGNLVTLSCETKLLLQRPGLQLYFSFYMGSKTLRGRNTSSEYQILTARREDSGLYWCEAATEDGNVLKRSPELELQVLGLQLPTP
For test [4], the target named is T1, CD16a 158V FcRγIIIa. Briefly: SPR Carterra LSA.
For test [5], the target named is T6, Recombinant CD20 (ACROBiosystems Cat #CD0-H52H3) (UniProt P11836 1-297).
T6 construct: also called monovalent CD20
T6 sequence: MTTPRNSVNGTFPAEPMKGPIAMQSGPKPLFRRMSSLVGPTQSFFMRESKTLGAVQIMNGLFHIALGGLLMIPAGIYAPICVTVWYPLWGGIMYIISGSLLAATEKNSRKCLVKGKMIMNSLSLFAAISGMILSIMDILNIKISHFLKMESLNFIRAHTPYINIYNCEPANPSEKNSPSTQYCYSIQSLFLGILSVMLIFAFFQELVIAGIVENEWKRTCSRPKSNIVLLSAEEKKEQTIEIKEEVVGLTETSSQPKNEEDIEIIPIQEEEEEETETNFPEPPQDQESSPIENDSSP
Briefly: SPR Carterra LSA.

Test [6] deals with T7, Recombinant CD19 (ACROBiosystems Cat #CD9-H52H2) (UniProt P15391 20-291).
T7 construct: also called monovalent CD19
T7 sequence: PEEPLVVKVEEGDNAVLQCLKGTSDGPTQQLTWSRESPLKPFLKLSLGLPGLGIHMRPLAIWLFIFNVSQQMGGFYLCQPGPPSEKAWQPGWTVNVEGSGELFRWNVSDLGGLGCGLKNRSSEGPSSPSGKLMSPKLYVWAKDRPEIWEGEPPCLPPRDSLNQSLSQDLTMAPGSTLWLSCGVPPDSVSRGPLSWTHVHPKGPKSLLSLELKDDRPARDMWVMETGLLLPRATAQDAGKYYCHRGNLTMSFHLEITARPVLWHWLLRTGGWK
Briefly: SPR Carterra LSA.

The target of test [7] is T4, CD32a 131R FcRγIIa. Briefly: SPR Carterra LSA.
The target in test [8] is T5, CD64 FcRγI. Briefly: SPR Carterra LSA.
For the next test, the target named is T8, CD19 (Table 9) (UniProt P15391 20-291).
T8 sequence (looked up): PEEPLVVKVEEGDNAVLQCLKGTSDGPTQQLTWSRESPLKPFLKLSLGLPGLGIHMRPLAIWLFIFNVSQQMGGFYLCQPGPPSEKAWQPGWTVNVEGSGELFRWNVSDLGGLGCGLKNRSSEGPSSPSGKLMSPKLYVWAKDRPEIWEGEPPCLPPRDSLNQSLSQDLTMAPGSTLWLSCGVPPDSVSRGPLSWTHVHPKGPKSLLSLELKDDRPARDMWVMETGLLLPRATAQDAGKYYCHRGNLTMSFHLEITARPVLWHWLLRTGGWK

T1 sequence (P08637 17-208 F176V limits assumed): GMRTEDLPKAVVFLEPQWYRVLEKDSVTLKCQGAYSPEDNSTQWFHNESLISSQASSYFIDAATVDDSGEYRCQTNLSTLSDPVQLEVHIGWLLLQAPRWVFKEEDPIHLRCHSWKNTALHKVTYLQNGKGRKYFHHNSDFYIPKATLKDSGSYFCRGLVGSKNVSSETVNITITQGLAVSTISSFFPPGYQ
CD16b FcRγIIIb, sequence (O75015 20-208 limits assumed): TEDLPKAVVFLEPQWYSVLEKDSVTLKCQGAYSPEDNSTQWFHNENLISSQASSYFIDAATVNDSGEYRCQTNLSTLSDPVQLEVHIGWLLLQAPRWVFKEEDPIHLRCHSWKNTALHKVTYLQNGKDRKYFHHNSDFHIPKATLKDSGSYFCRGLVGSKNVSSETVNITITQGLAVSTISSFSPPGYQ

B1: Rituxan (antibody)
VH: not shown
VL: QIVLSQSPAILSASPGEKVTMTCRASSSVSYIHWFQQKPGSSPKPWIYATSNLASGVPVRFSGSGSGTSYSLTISRVEAEDAATYYCQQWTSNPPTFGGGTKLEIKRTVAAPSVFIFPPSDEQLKSGTASVVCLLNNFYPREAKVQWKVDNALQSGNSQESVTEQDSKDSTYSLSSTLTLSKADYEKHKVYACEVTHQGLSSPVTKSFNRGEC
On to B1, for which the Kd (commonly a measure of binding affinity in units of concentration) with CD16b FcRγIIIb came to 1530 nM; in the test with CD16a 158V FcRγIIIa [1], 715 nM; with CD32b/c FcRγIIb, 1520 nM; with CD32a 131H FcRγIIa, 892 nM; with CD32a 131R FcRγIIa [2], 1250 nM; in the test with CD64 FcRγI [3], 52.8 nM.

B2: HB1905 (bispecific antibody, human IgG1, kappa)
light 1: DIQMTQTTSSLSASLGDRVTISCRASQDISKYLNWYQEKPDGTVKLLIYHTSRLHSGVPSRFSGSGSGTDYSLTISNLEQEDIATYFCQQGNTLPYTFGGGTKLEIKRTVAAPSVFIFPPSDEQLKSGTASVKCLLNNFYPREAKVQWKVDNALQSGNSQESVTEQDSKDSTYSLSSTLTLSKADYEKHKVYACEVTHQGLSSPVTKSFNRGEC
heavy 1: EVKLQESGPGLVAPSQSLSVTCTVSGVSLPDYGVSWIRKPPRKGLEWLGVIWGSETTYYNSALKSRLTIIKDNSKSQVFLKMSSLQTDDTAIYYCAKHYYYGGSYAMDYWGQGTSVTVSSASTKGPSVFPLAPSSKSTSGGTAALGCLVKDYFPEPVTVSWNSGALTSGVHTFPAVLQSSGLYSLESVVTVPSSSLGTQTYICNVNHKPSNTKVDKKVEPKSCTDWSPYADQSIKVRISLKSALGDKAYEWNDNEMYLFRSSVAYAMRQYFLKVKNQMILFGEEDVRVANLKPRISFNFFVTAPKNVSDIIPRTEVEKAIRMSRSRINDAFRLNDNSLEFLGIQPTLGPPNQPPVSTSTSPTRSMAPGAVHLPQPVSTRDKTHTCPPCPAPELLGGPSVFLFPPKPKDTLMISRTPEVTCVVVDVSHEDPEVKFNWYVDGVEVHNAKTKPREEQYNSTYRVVSVLTVLHQDWLNGKEYKCKVSNKALPAPIEKTISKAKGQPREPQVCTLPPSRDELTKNQVSLSCAVKGFYPSDIAVEWESNGQPENNYKTTPPVLDSDGSFFLVSKLTVDKSRWQQGNVFSCSVMHEALHNRFTQKSLSLSPG
light 2: QVQLQQPGAELVKPGASVKMSCKASGYTFTSYNMHWVKKTPGRGLEWIGAIYPGNGDTSYNQKFKGKATLTADKSSSTAYMQLSSLTSEDSAVYYCARSTYYGGDWYFNVWGAGTLVTVSSASVAAPSVFIFPPSDEQLKSGTASVECLLNNFYPREAKVQWKVDNALQSGNSQESVTEQDSKDSTYSLSSTLTLSKADYEKHKVYACEVTHQGLSSPVTKSFNRGEC
heavy 2: not shown
notes: also called anti-CD20/anti-CD19 bispecific GEM-DIMER
With B2, the binding result (with CD16a 158V FcRγIIIa [4]; in [5]; in test [6]; with CD32a 131R FcRγIIa [7]; with CD64 FcRγI [8]) was “binds” in each case.

B3: HB1906 (bispecific antibody, human IgG1, kappa)
light 1: DIQMTQTTSSLSASLGDRVTISCRASQDISKYLNWYQEKPDGTVKLLIYHTSRLHSGVPSRFSGSGSGTDYSLTISNLEQEDIATYFCQQGNTLPYTFGGGTKLEIKRTVAAPSVFIFPPSDEQLKSGTASVKCLLNNFYPREAKVQWKVDNALQSGNSQESVTEQDSKDSTYSLSSTLTLSKADYEKHKVYACEVTHQGLSSPVTKSFNRGEC
heavy 1: EVKLQESGPGLVAPSQSLSVTCTVSGVSLPDYGVSWIRKPPRKGLEWLGVIWGSETTYYNSALKSRLTIIKDNSKSQVFLKMSSLQTDDTAIYYCAKHYYYGGSYAMDYWGQGTSVTVSSASTKGPSVFPLAPSSKSTSGGTAALGCLVKDYFPEPVTVSWNSGALTSGVHTFPAVLQSSGLYSLESVVTVPSSSLGTQTYICNVNHKPSNTKVDKKVEPKSCTDWSPYADQSIKVRISLKSALGDKAYEWNDNEMYLFRSSVAYAMRQYFLKVKNQMILFGEEDVRVANLKPRISFNFFVTAPKNVSDIIPRTEVEKAIRMSRSRINDAFRLNDNSLEFLGIQPTLGPPNQPPVSTSTSPTRSMAPGAVHLPQPVSTRDKTHTCPPCPAPELLGGPSVFLFPPKPKDTLMISRTPEVTCVVVDVSHEDPEVKFNWYVDGVEVHNAKTKPREEQYNSTYRVVSVLTVLHQDWLNGKEYKCKVSNKALPAPIEKTISKAKGQPREPQVCTLPPSRDELTKNQVSLSCAVKGFYPSDIAVEWESNGQPENNYKTTPPVLDSDGSFFLVSKLTVDKSRWQQGNVFSCSVMHEALHNRFTQKSLSLSPG
light 2: QVQLQQPGAELVKPGASVKMSCKASGYTFTSYNMHWVKETPGRGLEWIGAIYPGNGDTSYNQKFKGKATLTADKSSSTAYMQLSSLTSEDSAVYYCARSTYYGGDWYFNVWGAGTLVTVSSASVAAPSVFIFPPSDEQLKSGTASVECLLNNFYPREAKVQWKVDNALQSGNSQESVTEQDSKDSTYSLSSTLTLSKADYEKHKVYACEVTHQGLSSPVTKSFNRGEC
heavy 2: not shown
notes: as for B2
On to B3, for which the binding result (with CD16a 158V FcRγIIIa [4]; in test [5]; in test [6]; with CD32a 131R FcRγIIa [7]; with CD64 FcRγI [8]) was “binds” throughout.

B4: B19c66 (antibody, human IgG1, kappa)
light: not shown
heavy: not shown
chain: CPPCPAPELLGGPSVFLFPPKPKDTLMISRTPEVTCVVVDVSHEDPEVKFNWYVDGVEVHNAKTKPREEQYNSTYRVVSVLTVLHQDWLNGKEYKCKVSNKALPAPIEKTISKAKGQPREPQVYVYPPSRDELTKNQVSLTCLVKGFYPSDIAVEWESNGQPENNYKTTPPVLDSDGSFALVSKLTVDKSRWQQGNVFSCSVMHEALHNHYTQKSLSLSPGK
In the test with CD19 (Table 9), B4 came in with an equilibrium dissociation constant (Kd) of 21.8 nM.

B5: B19c66AAC9 (antibody, human IgG1, kappa)
light: not shown
heavy: QVQLQQSGAELVRPGSSVKISCKASGYAFSSYWMNWVKQRPGQGLEWIGQIWPGDGDTNYNGKFKGKATLTADESSSTAYMQLSSLASEDSAVYFCARRETTTVGRYYYAMDYWGQGTTVTVSSASTKGPSVFPLAPSSKSTSGGTAALGCLVKDYFPEPVTVSWNSGALTSGVHTFPAVLQSSGLYSLSSVVTVPSSSLGTQTYICNVNHKPSNTKVDKKVEPKSCDKTHTCPPCPAPKRRGGPSVFLFPPKPKDTLMISRTPEVTCVVVDVSHEDPEVKFNWYVDGVEVHNAKTKPREEQYNSTYRVVSVLTVLHQDWLNGKEYKCKVSNKALPAPIEKTISKAKGQPREPQVYVLPPSRDELTKNQVSLLCLVKGFYPSDIAVEWESNGQPENNYLTWPPVLDSDGSFFLYSKLTVDKSRWQQGNVFSCSVMHEALHNHYTQKSLSLSPGK
chain: CPPCPAPEDEGGPSVFLFPPKPKDTLMISRTPEVTCVVVDVSHEDPEVKFNWYVDGVEVHNAKTKPREEQYNSTYRVVSVLTVLHQDWLNGKEYKCKVSNKALPAPIEKTISKAKGQPREPQVYVYPPSRDELTKNQVSLTCLVKGFYPSDIAVEWESNGQPENNYKTTPPVLDSDGSFALVSKLTVDKSRWQQGNVFSCSVMHEALHNHYTQKSLSLSPGK
As to B5, the dissociation constant Kd with CD19 (Table 9) was 21 nM.

Values taken from US20250092160A1 (published 2025).
